From article PMC5753033

Legend:
[1] = biological target: Alexa488-labeled WAVE1 PWCA (FRET donor construct) (human) (UniProt Q92558); experiment: FRET or BRET; competition: 7.5 nM Alexa488-WAVE1 variant premixed with 175 nM LatB-stabilized Atto540Q-actin, profilin titrated; room temperature; 20 mM HEPES pH 7.0, 100 mM KCl
[2] = biological target: Alexa488-labeled WAVE1 PWCA (FRET donor construct) (human) (UniProt Q92558); experiment: FRET or BRET; 7.5 nM Alexa488-labeled WAVE1 variant titrated with LatB-stabilized Atto540Q-actin; donor quenching; room temperature; 20 mM HEPES pH 7.0, 100 mM KCl, 1.5 mM MgCl2, 1 mM EGTA, 1 mM ATP; single site binding curve
[3] = biological target: Alexa488-labeled WAVE1 WCA (human); experiment: as above
WAVE1 PRD[B] (human) = WAVE1 PRD[B] (human) (UniProt Q92558); experiment: AUC; sedimentation equilibrium; dye-labeled WAVE1 PRD variant with an excess of profilin (for PRD[B] 91.2, 44.8 and 21.7 μM); three speeds; 20°C; 25 mM HEPES pH 7.0, 50 mM KCl, 1 mM MgCl2, 1 mM EGTA, 0.5 mM TCEP; two-site independent model with one site fixed to the non-specific affinity
WAVE1 PRD[C] (human) = WAVE1 PRD[C] (human) (UniProt Q92558); experiment: as above
WAVE1 PRD[D] (human) = WAVE1 PRD[D] (human) (UniProt Q92558); experiment: as above
WAVE1 PRD[A] (human) = WAVE1 PRD[A] (human) (UniProt Q92558); experiment: as above
WAVE1 PRD[F] (human) = WAVE1 PRD[F] (human) (UniProt Q92558); experiment: as above
WAVE1 PRD[E] (human) = WAVE1 PRD[E] (human) (UniProt Q92558); experiment: as above

| Substance | fraction of WH2 domains that contact actin at high profilin [1] [%] | residual fluorescence quenching at the highest profilin concentrations [1] [%] | Kd [2] [µM] | Kd [3] [µM] | Kd (WAVE1 PRD[B] (human)) [µM] | Kd (WAVE1 PRD[C] (human)) [µM] | Kd (WAVE1 PRD[D] (human)) [µM] | Kd (WAVE1 PRD[A] (human)) [µM] | Kd (WAVE1 PRD[F] (human)) [µM] | Kd (WAVE1 PRD[E] (human)) [µM] |
| --- | --- | --- | --- | --- | --- | --- | --- | --- | --- | --- |
| Atto540Q-labeled actin monomers (Acanthamoeba castellanii), Latrunculin B-stabilized (natural protein) | > 35 | > 30 | 0.021 | 0.061 |  |  |  |  |  |  |
| Human profilin 1 (from UniProt P07737 1-140) (natural protein) |  |  |  |  | 2 | > 10 | > 10 | > 10 | 4 | > 10 |
